According to the nanobody polyreactivity screen of Harvey et al. (2022):

Test: yeast display, Sf9 membrane polyspecificity reagent, FACS + sequencing; frameworks hold sequencing errors
In short: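 Using colony PCR, genes from sorted yeast display clones were amplified, then sequenced on MiSeq at 2 × 250 and filtered by CDR length. The clones had been stained with 10% biotinylated, detergent-solubilized Sf9 membrane reagent for 1 hour at 4 °C and sorted by FACS into low and high (top ~1%) gates on anti-HA and streptavidin fluorescence. Polyreactivity labels come from the gate of origin.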

Row | Sequence | polyreactivity (PSR sort gate)
1 | QVQLVESGGGLVQAGGSLRLSCAASGSTFAGNAMGWYRQAPGKERESVAAIDSSTGSTYYADSVKGRFTISRDNAKNTVYLQMTSLKPEDTAVYYCNKTSFLVKLDYWGQGTHVTVSS | low polyreactivity
2 | QVQLVESGGGLVQAGGSLRLSCAASGSTFAHYTMGWYRQAPGKERELVAAITRSGGSTYYADSVKGRFTISRDNAKNKVYLQMNSLKPEDTAVYYCAATRQWNILRYDYWGQCTQVTVSS | low polyreactivity
3 | QVQLVESGGGLVQAGGSLRLSCAASGSTFAIYAMGLYRQAPGKERELVAAITRSGGNTYYAESVKGRFTISRDNAKNTVYLQMNSLKPEDTAVYYCNAETYYWSAYAQYEYWGQGTQVTVSS | high polyreactivity
4 | QVQLVESGGGLVQAGGSLRLSCAASGSTFAIYAMGWYRQAPGKERELVAAITRGSTSYADSVKGRFTISRDNAKNTVYLQMNSLKPEDTAVYYCAADSSRYGVIRDFDYWGQGTQVTVSS | high polyreactivity
5 | QVQLVESGGGLVQAGGSLRLSCAASGSTFAKNAMGWYRQAPGKERELVAAITYSGGSTYYADSVKGRFTISRDNAKNTVYLQMNSLKPEDTAVYFCASDVWWSDYRYDYWGQGTQVTVSS | low polyreactivity
6 | QVQLVESGGGLVQAGGSLRLSCAASGSTFAKNAMGWYRQAPGKERQLVAAITYSGGSTYYADSVKGRFTISRDNAKNTVYLQMNSLKPEDTAVYYCAADVWWSYYRYDYWGQGTQVTVSS | low polyreactivity
7 | QVQLVESGGGLVQAGGSLRLSCAASGSTFAKYAMGWYRQAPGKERELVAAISSSGTSTYYADSVKGRFTISRDNAKNTVYLQMNSLKPEDTAVYYCAASYRNRYIAFYYWGQGTQVTVSS | low polyreactivity
8 | QVQLVESGGGLVQAGGSLRLSCAASGSTFALYAMGWYRQAPGKERELVAAISRSGSSTYYADSVKGRFTMSRDNAKNTVYLQMNSLKPEDTAVYYCATTISGLTSRLYYWGQGTQVTVSS | high polyreactivity
9 | QVQLVESGGGLVQAGGSLRLSCAASGSTFALYAMGWYRQAPGKERELVASITLSGGRTYYADSVKGRFTISRDNAKNTVYLQMNSLKPEDTAVDYCNAEDYDWMDYWGQGTQVTVSS | high polyreactivity
10 | QVQLVESGGGLVQAGGSLRLSCAASGSTFALYAMGWYRQAPGKERELVAVITSGGSTYYADSVKGRFTISRDNAKNTVYLQMNSLKPEDTAVYYCAARRHVRKGPLGYWGQGTQVTVSS | high polyreactivity
11 | QVQLVESGGGLVQAGGSLRLSCAASGSTFANYAMGWYRQAPGKERELVAAISRGGNTYYADSVKVRFTISRDNAKNTVYLQMNSLKPEDTAVYYCAKYTYYSRPGDSDSDYWGQGTQVTVSS | high polyreactivity
12 | QVQLVESGGGLVQAGGSLRLSCAASGSTFAPNTMGWYRQAPGKERELVARITSSDGSTTYADSVKGRFTISRDNAKNTVYLQRNSLKPEDTAVYYCAADYGRRWGYDYWGQGTQVTVSS | low polyreactivity
13 | QVQLVESGGGLVQAGGSLRLSCAASGSTFARYAMGWYRQAPGKERELVAAISRSGSNTYYADSVKGRFTISRDNAKNTVYLQMNSLKPEDTAVYYCAAVQPGQRTVAYDYWGQGTQVTVSS | high polyreactivity
14 | QVQLVESGGGLVQAGGSLRLSCAASGSTFARYAMGWYRQAPGKERELVAAITWRGGSTYYADSVKGRFTISRDNAKNTVYLQMNSLKPEDTAVYYCAADFSRRYGYWGQGTQVTVSS | high polyreactivity
15 | QVQLVESGGGLVQAGGSLRLSCAASGSTFARYAMGWYRQAPGKERELVAGISRGGRTYYADSVMGRFTISRDYAKNTVYLQMNSLKPVDTAVYYCAKRYVTLYNSQYNYWGQGTQVTVSS | high polyreactivity
16 | QVQLVESGGGLVQAGGSLRLSCAASGSTFARYAMGWYRQAPGKERELVAGISTSGGRTYYADSVKGRFTISRDNAKNTVYLQMTSLKPEDTAVYYCAKALSQTWYDGQYGYWGQGTQVTVSS | low polyreactivity
17 | QVQLVESGGGLVQAGGSLRLSCAASGSTFASYAMGWSRQAPGKERELVAAIRWRGGTTYYADSVKGRFTISRDNAKNTVYLQMNSLKPEDTAVYYCNADRYYLYYYWGQGTQVTVSW | low polyreactivity
18 | QVQLVESGGGLVQAGGSLRLSCAASGSTFASYAMGWYRQAPGKEREFVAAISRSGGSTYYADSVKGRFTISRDNAKNTVYLQMNSLKPEDTAVYYCAARSPSADEYYYWGQGTQVTVSS | low polyreactivity
19 | QVQLVESGGGLVQAGGSLRLSCAASGSTFATNAMGWYRQAPGKERELVATISSDGSTNYADSVKGRFTISRDNAKNTVYLQMNSLKPEDTAVYYCATEVTYPWHVDEGDYWGQGTQVTVSS | low polyreactivity
20 | QVQLVESGGGLVQAGGSLRLSCAASGSTFAVYAMGWYRQAPGKERELVAAITWSGGSTYYADSVKGRFTISRDNAKNTVYFQMNSLKPEDTAVYYCAAAGYYSDMDYWGQGTQVTVSS | low polyreactivity
21 | QVQLVESGGGLVQAGGSLRLSCAASGSTFAVYAMGWYRQEPGKERELVATITGSGGSTYYADSVKGRFTISRDNAKNTVYLQMNSLKPEDTAVYYCAAEVVAWSLYEDFKTYDYWGQGTQVTVSS | low polyreactivity
22 | QVQLVESGGGLVQAGGSLRLSCAASGSTFAVYTMGWYRQAPGKERELVAAISSSGGSTYLRRSVKGRFTISRDNAKNTVYLQMNSLKPEDTAVYYCAAQWYAGHWHVPYEYWGQGTQVTVSS | high polyreactivity

Row | Sequence | polyreactivity (PSR sort gate)
23 | QVQLVESGGGLVQAGGSLRLSCAASGSTFAWYAMGWYRQAPGKGEFVAGISDSGGRTYYADSVKGRFTISRDNAKNTVYLQMNSLKPEDTAVYYCAAGDHYYRYAYRRGYWGQGTQVTVSS | low polyreactivity
24 | QVQLVESGGGLVQAGGSLRLSCAASGSTFAYNAMGCYRQAPGKERELVAAISFTGDSTYYADSVKGRFTISRDNAKYTVYLQMNSLKPEDNRSSPVLSYDYWGQGTQVTVSS | low polyreactivity
25 | QVQLVESGGGLVQAGGSLRLSCAASGSTFAYNAMGWYIQAPGKERELVAAISWGDGITYYADSVKGRFSISRDYAKNTVYLQINILKPEDTAVITRDFGYWGQGTQVTVSS | low polyreactivity
26 | QVQLVESGGGLVQAGGSLRLSCAASGSTFAYNAMGWYRQAPGKERELVAAISSSGGSTSYADSVKARFTIARDNAKNTVNLQMNSLKPEDPAVYYCAADSYPAYLGFVGFDYWGQGTQVTVSS | low polyreactivity
27 | QVQLVESGGGLVQAGGSLRLSCAASGSTFAYNAMGWYRQAPGKERELVAAISSSGTSTYYADSVKGRFTISRDYAKNTVYLQMNSLKTEDTAVYYCAARSAILKSGYLMDYWGQGTQVTVSS | low polyreactivity
28 | QVQLVESGGGLVQAGGSLRLSCAASGSTFAYNAMGWYRQAPGKERELVASITVSVGSTYYADSVKGRYTISRDNAKNTVYLQMNRLKPVDTAVYYCAARVTLRSSTYWVPRTGYYYWGQGTQVTVSS | low polyreactivity
29 | QVQLVESGGGLVQAGGSLRLSCAASGSTFAYYMGWYRQAPGKERELVASISTYYADSVKGRFTISRDNAKNTVYLQMNSLKPEDTAVYSCAKGYPDPQWGGVLAYDYWGQGTQVTVSS | low polyreactivity
30 | QVQLVESGGGLVQAGGSLRLSCAASGSTFAYYVMGWYRQAPGKERELVAAISRGGRTYYADSVKGRFTISRDNAKNTVYLQMNSLKPEDTAVYYCAKPYHQRSAKVDYWGQGTQVTVSS | low polyreactivity
31 | QVQLVESGGGLVQAGGSLRLSCAASGSTFAYYVMGWYRQAPGKERELVAAITSSGGRTYYADSVKGRFTISRDNAKNTVYLQMNSQKPEDTAVYYCAKVSQRRVDNSDYDYWGQGTQVTVSS | high polyreactivity
32 | QVQLVESGGGLVQAGGSLRLSCAASGSTFCDYAMGWYRQAPGKERELVAAISSGGSTNYADSVKGRFTISRDNAKNTVYLQMNSLKPEDTAVYYCAVGYGGYYYWGQGTQVTVSS | high polyreactivity
33 | QVQLVESGGGLVQAGGSLRLSCAASGSTFCGYAMGWSRQAPGKEREFVATISISGGSTYYADSVKGRFTISRDNAKNTVYLQMNSLKPEDTAVYYCNADYYFSWGSIEDYWGQGTQVTVSS | low polyreactivity
34 | QVQLVESGGGLVQAGGSLRLSCAASGSTFCRNTMGWYRQAPGKERELVAAINRSASNTYYADSVKGRFTISRDNAKNTVYLQMNSLKQEDPAVYYCSTYSRIFKWEYYYWGQGTQGTVSS | high polyreactivity
35 | QVQLVESGGGLVQAGGSLRLSCAASGSTFDANAMGWYRQAPGKERELVAAISYSDGTTYYADSVKGRFTISRDNAKNTVYLQMNSLKPEDTAVYYCAAELFTYDGEEDYWGQGTQVTVSS | high polyreactivity
36 | QVQLVESGGGLVQAGGSLRLSCAASGSTFDAYAMGWYRQAPGKERELVAAITWSGGSTYYADSVKGRFTISRDNAKTTVYLQMNSLKPEDTAVYYCAAYYLIFYFEFDYWGQGTQVTVYS | low polyreactivity
37 | QVQLVESGGGLVQAGGSLRLSCAASGSTFDDNVMGWYRQAPGKERELVASSTSGGGTNYADSVKGRFTISRDNAKNTVYLQMKSLKPEDTAVYYCAARTQGRRLDYGYWGQGTQVTVSS | low polyreactivity
38 | QVQLVESGGGLVQAGGSLRLSCAASGSTFDDYAMGWYRQATGIERELVAAINNGGSTTYADSVKGRFTISRDNAKNTVYLQMNSLKPEDTAVYYCAKDSGAWEYDYWGQGTQVTVSS | low polyreactivity
39 | QVQLVESGGGLVQAGGSLRLSCAASGSTFDFNAMGWYRQAPRKERELVASISWDTGGTYADSVKGRFTISRDNAKNSFYLQMNSLKTEDTAVYFCAARPDYFIFDYWGQGTQVTVSS | low polyreactivity
40 | QVQLVESGGGLVQAGGSLRLSCAASGSTFDGNAMGWYRQAPGKERELVAAITSGGSTNYADSVKGRFTISRDNAKNTDYLQMNSLKPEDTAVYYCAADTVSFSILYDYWGQGTQVTVSS | low polyreactivity
41 | QVQLVESGGGLVQAGGSLRLSCAASGSTFDGNAMGWYRQAPGKERELVAAITYTTSSTYYADSVKGRFTISRDNAKNTVYLQMNSLKPEDTAVYYCAADASYLPYPLPGTEYEYWGQGTQVTVSS | low polyreactivity
42 | QVQLVESGGGLVQAGGSLRLSCAASGSTFDGYAMGWYRQAPGKERELVAAISSSGTSTYYADSVKGRFTISRDNAKNTVYLQMNSLKPEDTAVYYCAGKGATQSWAGDYWGQGTQVTVSS | low polyreactivity
43 | QVQLVESGGGLVQAGGSLRLSCAASGSTFDGYAMGWYRQAPGKERELVAAITVSVGSTYYADSVKGRFTISRDNAKNTVYLQMNSLIPEDTAVYYCAADYDYHYRYYYWGQGTQVTVSS | low polyreactivity
